Data as given in the supplement of paper PMC6757056.
± gives the standard deviation of the averaged measurements.

B1: library; a variant is named by its letters at N, in order (parent)
chain: GCUGUCACCGGUGCUUGGUACGUUAUAUUCAGCCGGUCUGAUGAGUCUNNNNNNAGACGAAACAGC

What was measured:
[1] = variants of: B1; assay: FACS-Seq fitted mean relative fluorescence mCherry/BFP without ligand (log10 relative fluorescence); HEK293T overexpressing SLC46A1; higher = higher reporter protein expression; conditions: without (6R,S)-folinic acid; ligand present: no
In short: (§1)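 Enriched HEK293T cells carrying, by lentivirus, an mCherry reporter with the ribozyme switch and an EF1α-BFP marker spent 48 h with or without ligand and were sorted into 6 bins by mCherry/BFP. MiSeq sequencing of PCR-amplified bin genomic DNA gave bin counts. Fluorescence was calculated as the fitted normal mean of those counts. Counts were binned on log10(mCherry/BFP), and means were scaled to five spiked-in control ribozymes.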

[2] = variants of: B1; assay: normalized RNA/DNA level without ligand (relative to sTRSVctl = 100) (log10 (% of sTRSVctl)); HEK293T overexpressing SLC46A1; higher = less ribozyme self-cleavage, higher mRNA level; conditions: without (6R,S)-folinic acid; ligand present: no
In short: (§2)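 Library plasmids encoding reporter-linked ribozyme switches (mCherry, or eGFP for some folinic acid experiments) were transfected into HEK293T at 4 µg per 6-well well. Ligand, when used, was added 1 h before transfection. Total RNA was extracted with EDTA 72 h later, then reverse-transcribed, amplified, barcoded and sequenced. RNA level was RNA reads over DNA reads, divided by a spiked-in non-cleaving control (or the top 25 sequences), ×100, log10; only sequences with ≥100 DNA reads were kept.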

[3] = variants of: B1; assay: FACS-Seq fitted mean relative fluorescence mCherry/BFP with ligand (log10 relative fluorescence); HEK293T overexpressing SLC46A1; ligand concentration (+) FACS-Seq: 6 mM; higher = higher reporter protein expression; conditions: with (6R,S)-folinic acid; ligand present: yes
In short: as §1

[4] = variants of: B1; assay: normalized RNA/DNA level with ligand (relative to sTRSVctl = 100) (log10 (% of sTRSVctl)); HEK293T overexpressing SLC46A1; ligand concentration (+) RNA-Seq: 6 mM; higher = less ribozyme self-cleavage, higher mRNA level; conditions: with (6R,S)-folinic acid; ligand present: yes
In short: as §2

Variant | FACS-Seq fitted mean (log10) [1] | normalized RNA/DNA level without ligand (log10) [2] | FACS-Seq fitted mean (log10) [3] | normalized RNA/DNA level with ligand (log10) [4]
UCUAAA | 0.394 ± 0.046 | 1.977 ± 0.0068 | 0.483 ± 0.022 | 2.018 ± 0.017
GAGGGU | 0.338 ± 0.027 | 2.001 ± 0.016 | 0.556 ± 0.037 | 2.04 ± 0.041
GAGGGA | 0.161 ± 0.042 | 1.969 ± 0.017 | 0.0592 ± 0.019 | 2.04 ± 0.028
AAAUAG | -0.0965 ± 0.1 | 1.903 ± 0.006 | -0.332 ± 0.53 | 1.98 ± 0.022
GAGGUG | 0.324 ± 0.045 | 1.967 ± 0.0026 | 0.505 ± 0.25 | 2.04 ± 0.043
GAGGUU | -0.16 ± 0.053 | 1.991 ± 0.0089 | -0.382 ± 0.15 | 2 ± 0.027
GGAGGC | -0.315 ± 0.075 | 1.936 ± 0.0065 | -0.531 ± 0.17 | 2.0118 ± 0.0015
GGAGGU | 0.445 ± 0.085 | 2.02 ± 0.033 | 0.592 ± 0.05 | 2.05 ± 0.07
AUGCAA | 0.349 ± 0.0069 | 1.9632 ± 0.00072 | 0.36 ± 0.083 | 1.976 ± 0.011
AUAUUG | 0.176 ± 0.067 | 1.896 ± 0.0041 | 0.136 ± 0.13 | 1.97 ± 0.011
CUUGUG | 0.147 ± 0.16 | 2.021 ± 0.012 | -0.331 ± 0.28 | 2.02 ± 0.039
UAGGGA | 0.295 ± 0.13 | 1.8512 ± 0.0012 | 0.501 ± 0.29 | 2 ± 0.03
UGGCCA | 0.74 ± 0.1 | 2.04 ± 0.014 | 0.432 ± 0.081 | 2.057 ± 0.014
GCUCGU | 0.5943 ± 0.0012 | 2.0305 ± 0.0014 | 0.851 ± 0.091 | 2.02 ± 0.037
GUACAG | 0.519 ± 0.15 | 1.938 ± 0.018 | 0.81 ± 0.0085 | 2 ± 0.024
UAAGGA | 0.0731 ± 0.084 | 1.85 ± 0.026 | 0.217 ± 0.0071 | 1.997 ± 0.018
GAUGAC | 0.579 ± 0.11 | 1.95 ± 0.025 | 0.593 ± 0.085 | 2.01 ± 0.043
GAUGAA | 0.212 ± 0.041 | 1.966 ± 0.012 | 0.37 ± 0.0079 | 1.989 ± 0.017

Variant | FACS-Seq fitted mean (log10) [1] | normalized RNA/DNA level without ligand (log10) [2] | FACS-Seq fitted mean (log10) [3] | normalized RNA/DNA level with ligand (log10) [4]
AAAGUC | 0.0964 ± 0.057 | 2.066 ± 0.014 | 0.235 ± 0.08 | 2.03 ± 0.047
AGAUCA | -0.134 ± 0.025 | 2.01 ± 0.005 | -0.625 ± 0.07 | 2 ± 0.058
AAGUGA | 0.288 ± 0.021 | 1.952 ± 0.003 | 0.42 ± 0.11 | 2.03 ± 0.021
AUAGUA | 0.293 ± 0.042 | 1.93 ± 0.027 | 0.273 ± 0.21 | 1.97 ± 0.019
UUAAAC | 0.248 ± 0.093 | 1.984 ± 0.0098 | 0.271 ± 0.092 | 1.99 ± 0.031
CACACU | 0.136 ± 0.099 | 2.008 ± 0.011 | 0.187 ± 0.057 | 2.03 ± 0.011
AUCGAG | 0.076 ± 0.01 | 1.813 ± 0.017 | 0.217 ± 0.22 | 2 ± 0.032
UGGACA | 0.24 ± 0.025 | 1.95 ± 0.0054 | 0.186 ± 0.017 | 2.019 ± 0.019
GCUAUA | 0.337 ± 0.086 | 1.985 ± 0.014 | 0.51 ± 0.19 | 2.019 ± 0.0034
CGUAUU | -0.147 ± 0.033 | 2.034 ± 0.011 | 0.0205 ± 0.0068 | 2.03 ± 0.037
UUACCC | 0.388 ± 0.015 | 2.018 ± 0.015 | 0.263 ± 0.21 | 2.01 ± 0.03
GACUAG | 0.271 ± 0.048 | 1.934 ± 0.019 | 0.493 ± 0.089 | 2 ± 0.033
GUGACC | 0.7143 ± 0.0036 | 2.03 ± 0.0039 | 0.585 ± 0.22 | 2.02 ± 0.028
ACUUAA | -0.0941 ± 0.16 | 1.974 ± 0.011 | -0.044 ± 0.31 | 1.98 ± 0.033
GUGUAG | 0.435 ± 0.018 | 1.899 ± 0.0022 | 0.514 ± 0.18 | 1.998 ± 0.016
AUAAAA | 0.343 ± 0.0039 | 1.9901 ± 0.0019 | 0.263 ± 0.23 | 1.994 ± 0.016
UAAGUC | 0.228 ± 0.093 | 2.0619 ± 0.00099 | 0.173 ± 0.12 | 2.038 ± 0.0091
